Results on 25 molecules are retold here after US7432244 (dated 2008).

The target in assay [1] is T1, IGF-1 (human, UniProt P05019). The assay can be described thus: competition phage ELISA.
Assay [2] addresses T1, IGF-1. Nature of the assay: competition, IGF-1 phage vs IGFBP-1.
Assay [3] deals with T1, IGF-1. Nature of the assay: competition, IGF-1 phage vs IGFBP-3.
Assay [4] concerns the target T1, IGF-1. Nature of the assay: competition, 125I-IGF-1 binding to MCF-7 cells, 37C.

Bridge positions count the residues as written; N and C are the ends. Ends that are not written are not given here.

T1 sequence (P05019 49-118): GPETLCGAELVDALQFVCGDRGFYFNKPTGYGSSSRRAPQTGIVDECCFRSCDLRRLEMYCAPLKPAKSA

Regarding HDCFASVEALRRCMY [F1-D], the IC50 – broadly, the concentration that inhibits the measured activity by half – in the assay with IGF-1 [1] was 0.468 µM.
For ASCVADAGGGGYCWD [F2-G], in the assay with IGF-1 [1], the IC50 is 0.986 µM.
The molecule FGCYESVAALRTCMY [F1-B] gave an IC50 with IGF-1 [1] of 0.301 µM.
Turning to RNCFESVAALRRCMY [F1-C], the IC50 with IGF-1 [1] stood at 0.108 µM.
In the assay with IGF-1 [1], FRCAWELGWLYVLGL [F2-F] displayed an IC50 of 209 µM.
MDCLASVEALKWCMY [F1-H] registered an IC50 with IGF-1 [1] of 0.147 µM.
The molecule LGCASDLAGFWYCWA [F2-E] came in with an IC50 with IGF-1 [1] of 0.554 µM.
As for FECLTSVEALRGCMYG (disulfide 3-13 (inferred)) [F1-3], the results for the IC50 in the assay with IGF-1 [2], in the assay with IGF-1 [3] and with IGF-1 [4] were 11.7 µM, 12.8 µM and 45.7 µM, respectively.
As to VKCARDLSGFVYCWA [F2-C], the IC50 in the assay with IGF-1 [1] worked out at 10000 µM.
The same measure, in the same setting: with SDCFESVEALRACMY [F1-G] the figure was 0.968 µM; with WRCAQDAGGWTYCWA [F2-M], 1.04 µM; with HPCLESVGALKACMY [F1-A], 0.401 µM.
In turn, LRCAEDLGGYFYCWA [F2-J] had an IC50 in the assay with IGF-1 [1] of 2.12 µM.
VRCAYDAGGSRYCWE [F2-B] gave a half-inhibitory concentration (IC50) with IGF-1 [1] of 24.6 µM.
Still for that read-out and setting: with GGCASDLAGFRYCWE [F2-A] the figure was 1.33 µM; with ARCARDAGGFYYCWA [F2-L], 4.36 µM.
On to VTCAADALGFLYCWE [F2-I], for which, in the assay with IGF-1 [1], the IC50 is 1.03 µM.
Regarding VRCAWDLGGRAYCWA [F2-D], the IC50 in the assay with IGF-1 [1] came to 249 µM.
As to RNCFESVAALRRCMYG (disulfide 3-13 (inferred)) [F1-1], the IC50 with IGF-1 [2] was determined as 1.4 µM; with IGF-1 [3] it was 2.93 µM; in the assay with IGF-1 [4], 5.12 µM.
In turn, SDCFGSVEALKMCMY [F1-E] showed an IC50 with IGF-1 [1] of 0.711 µM.
Turning to MDCLASVEALKWCMYG (disulfide 3-13 (inferred)) [F1-2], the IC50 with IGF-1 [2] is 15.5 µM; with IGF-1 [3] it was 9.2 µM; with IGF-1 [4], 15.3 µM.
VRCVADAGGFLYCWA [F2-N] registered an IC50 with IGF-1 [1] of 1.18 µM.
In turn, YRCATDLAGFSYCWA [F2-K] yielded an IC50 with IGF-1 [1] of 1.45 µM.
Same read-out and setting: with FECLTSVEALRGCMY [F1-F] the figure was 0.286 µM.
Molecule WRCVDDLGGFQYCWA [F2-H] had an IC50 with IGF-1 [1] of 0.319 µM.
